Reference: patent US20080206219A1, “Novel Indications for Transforming Growth Factor-Beta Regulators” (THE REGENCTS OF THE UNIVERSITY OF CALIFORNIA, priority 2003, published 2008)

B1: VEGFA164: VEGF164 (Chemicon), agent known to induce vascular leakage via VEGFR2 (protein)
chain: APTTEGEQKSHEVIKFMDVYQRSYCRPIETLVDIFQEYPDEIEYIFKPSCVPLMRCAGCCNDEALECVPTSESNITMQIMRIKPHQSQHIGEMSFLQHSRCECRPKKDRTKPENHCEPCSERRKHLFVQDPQTCKCSCKNTDSRCKARQLELNERTCRCDKPRR

Tests used:
[1] = system: gelatinolytic activity in Collα1(I)r/r skin; assay: Substrate conversion assay (DQ-gelatin) on skin lysates; format: biochemical, mice; details: inhibitor at 4 mM
Method: Shaved back skin pieces from 5-8 week old mice were pulverized in liquid N2 and solubilized in 500 μl buffer (0.25 M sucrose, 5 mM Tris, pH 7.5, protease Inhibitor cocktail mix without EDTA (Roche), 0.25 mg/ml Pefablock (Roche), 0.01 mg/ml Aprotinin (Sigma-Aldrich) using a 2 ml tissue grinder (Fisher) and centrifuged at 4° C. 800×g for 15-min. Supernatants were centrifuged for 1-hr at 100,000×g at 4° C. Supernatants were stored at −80° C., pellets were resuspended in 100 μl solubilization buffer, homogenized by sonication at 4° C., and stored at −80° C. Protein concentration was determined with the BioRad DC Protein assay reagent according to manufacturers instructions (BioRad). Prior to assay, lysate buffers were exchanged using Micro Bio-spin chromatography columns (Bio-gelP-6; BioRad) to 10 mM Tris pH 7.5 according to the manufacturers specifications. […] Reactions were incubated up to 5-hr at 37° C. and fluorescence measured (excitation 485 nm, emission 530 nm) every 3-min on a Microplate Spectrofluorometer (SpectraMax Gemini EM, Molecular Devices) and quantified using SoftMax Pro 4.1 software. […]

[2] = system: control and Collα1(I)r/r mice; assay: Modified Miles assay: intradermal injection of permeability-inducing agents; format: in vivo
Method: Evans blue (EB) dye (30 mg/kg in 100 μl PBS; Sigma-Aldrich) was injected into the tail vein of 7- to 8-week-old mice. In some experiments, after 1-min, 30 μl of 5% mustard oil (Phenyl Isothiocyanate, 98%, Sigma-Aldrich) diluted in mineral oil (Sigma-Aldrich) was applied to the dorsal and ventral surfaces of the ear; the application process was repeated 15 minutes later. Isoflurane anesthesized mice were photographed 30 minutes after injection of EB dye. Anesthesized mice were then cardiac perfused, ears removed, blotted dry and weighed. EB dye was extracted from ears in 1 ml of formamide overnight to 48-hrs at 60° C. and measured spectrophotometrically at 610 nm in a SpectraMax 340™ (Molecular Devices). Data are expressed as mean±SEM. Comparisons of the amounts of dye extravasation were evaluated by Mann-Whitney statistical test with p values less than 0.05 considered significant. In some experiments, 5-min prior to the infusion of EB dye, shaved 5-to 7-week old mice were injected (10 μl) intradermally with one of the following agents at the concentrations shown (VEGF120, R&D Systems; VEGF164, Chemicon; histamine, Calbiochem; serotonin, Sigma-Aldrich) and the appearance of a blue spot monitored for 30 minutes at which time mice were euthanized, cardiac perfused, photographed and the area of skin surrounding the site of injection excised (˜5 mm^2), photographed and EB dye extracted as above.
The vascular leakage in control and Collα1(I)^r/r mice following intradermal injection of other agents known to induce vascular leakage, e.g., VEGFA120, VEGFA164 and serotonin (versus vehicle alone), by interacting with distinct cell surface receptors, e.g., VEGF receptor-2 (VEGFR2) and serotonin receptors, respectively (FIG. 3A) were assessed. 5 min prior to the infusion of Evans blue dye, shaved 5-to 7-week old mice were injected (10 μl) intradermally with VEGF120 (R&D Systems) VEGF164 (Chemicon; histamine, Calbiochem) serotonin (Sigma) TIMP-1 (Oncogene Research Products, San Diego Calif.) and the appearance of a blue spot monitored for 30 minutes at which time mice were euthanized, cardiac perfused, photographed and the area of skin surrounding the site of injection excised (˜5 mm^2), photographed and Evans blue dye extracted as above.

[3] = biological target: T1, VEGFR2 (Mus musculus, UniProt P35918); assay: VEGFR2 phosphorylation, IP-western of tissue lysates after intradermal VEGF164; format: in vivo; details: control and Collα1(I)r/r mice; VEGF164 10 ng i.d.
T1 construct: tissue lysates were subjected to immunoprecipitation with anti-VEGFR2 antibodies; from tissue; host or cells: mouse skin after intradermal VEGF164 or BSA
Method: VEGFR2: Tissue pieces (5 mm^2) from animals were collected from ears or following shaving of back skin or following injection (i.d.) of 10 μl 10 ng VEGF164 or 0.1% BSA in PBS. Tissues were pulverized in liquid N2 followed by lysis in ice-cold buffer containing 20 mM Tris, pH 7.6, 150 mM NaCl, 1 mM EDTA, 50 mM NaF, 1% triton X-100, 0.5% Na-deoxycholate, 0.1% SDS, 2 mM Na2VO4, 10 μg/ml aprotinin, 1 mM phenylmethylsulfonylfluoride and centrifuged at 10,000 rpm for 30-min at 4° C. The supernatants were recentrifuged at 10,000 rpm for 30-min at 4° C. Lysates were then incubated in a slurry of heparin-Sepharose CL-6B (Pharmacia) and incubated overnight rocking at 4C, centrifugation and equilibrated to 150 mM NaCl. Protein was dialyzed against PBS and quantified using the BioRad protein assay system (BioRad). Before immunoprecipitation, BSA was added to the pre-cleared lysates to 0.5%. Equal amounts of protein (1 mg) from lysates were used for immunopreciptations and Western blotting. […]
Following intradermal injection of VEGF164 (10 ng), tissue lysates were subjected to immunoprecipitation with anti-VEGFR2 antibodies, followed by SDS-PAGE electrophoreses of immune complexes and western blot analysis with anti phospho-tyrosine and anti-VEGFR2 antibodies (FIG. 3B). […] Protein was dialyzed against PBS and quantified using the BioRad protein assay system (BioRad, Hercules, Calif.). […]

T1 sequence (P35918 20-1345): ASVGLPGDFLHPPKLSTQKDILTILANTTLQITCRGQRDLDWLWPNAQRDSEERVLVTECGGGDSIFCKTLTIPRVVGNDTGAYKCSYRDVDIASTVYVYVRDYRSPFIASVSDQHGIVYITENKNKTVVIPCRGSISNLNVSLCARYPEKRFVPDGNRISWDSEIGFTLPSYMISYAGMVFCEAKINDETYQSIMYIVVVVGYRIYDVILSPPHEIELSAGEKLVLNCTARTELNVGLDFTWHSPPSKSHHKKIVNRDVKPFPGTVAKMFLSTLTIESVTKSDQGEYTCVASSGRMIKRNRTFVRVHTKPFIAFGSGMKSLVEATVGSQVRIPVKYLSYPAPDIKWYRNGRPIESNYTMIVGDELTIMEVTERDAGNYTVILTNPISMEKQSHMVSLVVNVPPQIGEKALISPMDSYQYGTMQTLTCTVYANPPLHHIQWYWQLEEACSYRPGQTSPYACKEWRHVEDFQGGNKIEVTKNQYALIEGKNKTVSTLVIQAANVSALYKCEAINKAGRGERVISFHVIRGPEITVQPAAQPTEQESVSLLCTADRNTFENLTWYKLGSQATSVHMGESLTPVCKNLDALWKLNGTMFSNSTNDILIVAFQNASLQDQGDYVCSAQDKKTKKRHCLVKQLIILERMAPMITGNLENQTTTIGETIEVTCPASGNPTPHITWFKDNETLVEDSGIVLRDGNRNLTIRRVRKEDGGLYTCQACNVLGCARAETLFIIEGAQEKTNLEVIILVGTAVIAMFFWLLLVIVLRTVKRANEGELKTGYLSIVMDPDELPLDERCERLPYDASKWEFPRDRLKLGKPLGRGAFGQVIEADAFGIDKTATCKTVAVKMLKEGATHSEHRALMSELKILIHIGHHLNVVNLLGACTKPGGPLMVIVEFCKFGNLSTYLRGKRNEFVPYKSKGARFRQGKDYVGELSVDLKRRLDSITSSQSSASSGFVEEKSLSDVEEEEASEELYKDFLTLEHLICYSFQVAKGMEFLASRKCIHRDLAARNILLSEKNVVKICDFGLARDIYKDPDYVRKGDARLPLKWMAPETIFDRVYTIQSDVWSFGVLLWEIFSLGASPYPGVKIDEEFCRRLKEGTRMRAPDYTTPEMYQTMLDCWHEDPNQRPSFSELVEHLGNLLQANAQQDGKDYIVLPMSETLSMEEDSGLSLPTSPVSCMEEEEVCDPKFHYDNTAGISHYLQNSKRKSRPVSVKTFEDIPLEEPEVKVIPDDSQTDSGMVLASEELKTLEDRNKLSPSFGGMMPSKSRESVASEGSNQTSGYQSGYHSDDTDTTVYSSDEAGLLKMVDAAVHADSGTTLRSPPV

Molecule | gelatinolytic activity in skin lysate [1] | Evans blue leakage response after intradermal injection ([2]; Collα1(I)r/r mice versus control mice, all concentrations tested) | leakage of Evans blue dye into stroma after intradermal injection ([2]; control mice, increasing concentrations) | phosphorylation of VEGFR2 following exposure to VEGF [3]
c1cnc2c(c1)ccc1cccnc12 [1,10 phenanthroline] | completely inhibited | – | – | –
B1 | – | significantly inhibited | significant leakage | similarly increased levels of phosphorylation
